Changes are numbered by the printed parent chain. Where two headings read alike, the source gives them in different places. Values belong to the binder of their own block, whether it stands above or below them.
Legend:
Test in all cases: cell-based or functional assay
[1] = target: T1, recombinant human TFPI (tissue factor pathway inhibitor) (human, UniProt P10646 29-304)
[2] = target: T1, recombinant human TFPI (tissue factor …); remark: listed apart in the source
[3] = target: T1, recombinant human TFPI (tissue factor …); remark: listed apart in the source
[4] = target: T1, recombinant human TFPI (tissue factor …); remark: listed apart in the source
[5] = target: T1, recombinant human TFPI (tissue factor …); remark: listed apart in the source

FXa assay % of FXa alone, 2.5 nM Ab, 10 nM TFPI [1]: 6.4% | FXa assay % of FXa alone, 5 nM Ab, 10 nM TFPI [1]: 8.4% | FXa assay % of FXa alone, 10 nM Ab, 10 nM TFPI [1]: 16.7% | FXa assay % of FXa alone, 20 nM Ab, 10 nM TFPI [1]: 80.5% | FXa assay OD, 2.5 nM Ab, 10 nM TFPI [1]: 0.0495 | FXa assay OD, 10 nM Ab, 10 nM TFPI [1]: 0.129 | FXa assay OD, 20 nM Ab, 10 nM TFPI [1]: 0.62
B1: clone 4141 (antibody, V domains shown)
VH: EVQLVESGGGLVKPGGSLRLSCAASGFTFSSYAMNWVRQAPGKGLEWVGTITTGGSHTYYADSVEGRFTISRDNAKNSLYLQMNSLRAEDTAVYYCARQDGYFLMDYWGQGTLVTVSS
VL: DVVMTQTPLSLPVTLGQPASISCKSSQSLLDVDGKTYLNWLQQRPGQSPKRLIYLVSKLDSGVPDRFTGSGSGTDFTLKISRVEAEDVGVYYCWQGTHFPFTFGQGTKVEIKR

FXa assay % of FXa alone, 2.5 nM Ab, 10 nM TFPI [2]: 4.5% | FXa assay % of FXa alone, 5 nM Ab, 10 nM TFPI [2]: 13.2% | FXa assay % of FXa alone, 10 nM Ab, 10 nM TFPI [2]: 5.6% | FXa assay % of FXa alone, 20 nM Ab, 10 nM TFPI [2]: 63.2% | FXa assay OD, 2.5 nM Ab, 10 nM TFPI [2]: 0.039 | FXa assay OD, 5 nM Ab, 10 nM TFPI [2]: 0.115 | FXa assay OD, 10 nM Ab, 10 nM TFPI [2]: 0.0485 | FXa assay OD, 20 nM Ab, 10 nM TFPI [2]: 0.55
B2: clone 1238 (antibody, V domains shown)
VH: B1 VH with G49S, H57Y, Y102H
VL: B1 VL

FXa assay % of FXa alone, 2.5 nM Ab, 10 nM TFPI [3]: 9.6% | FXa assay % of FXa alone, 5 nM Ab, 10 nM TFPI [3]: 5.1% | FXa assay % of FXa alone, 10 nM Ab, 10 nM TFPI [3]: 11.8% | FXa assay % of FXa alone, 20 nM Ab, 10 nM TFPI [3]: 38.4% | FXa assay OD, 2.5 nM Ab, 10 nM TFPI [3]: 0.073 | FXa assay OD, 5 nM Ab, 10 nM TFPI [3]: 0.0385 | FXa assay OD, 10 nM Ab, 10 nM TFPI [3]: 0.09 | FXa assay OD, 20 nM Ab, 10 nM TFPI [3]: 0.292
B3: clone 10 (antibody, V domains shown)
VH: B1 VH with G49S, H57Y, E65Q, Y102N
VL: B1 VL with Q27P

FXa assay % of FXa alone, 2.5 nM Ab, 10 nM TFPI [4]: 6.4% | FXa assay % of FXa alone, 5 nM Ab, 10 nM TFPI [4]: 10.3% | FXa assay % of FXa alone, 10 nM Ab, 10 nM TFPI [4]: 66.9% | FXa assay % of FXa alone, 20 nM Ab, 10 nM TFPI [4]: 73.9% | FXa assay OD, 2.5 nM Ab, 10 nM TFPI [4]: 0.031 | FXa assay OD, 5 nM Ab, 10 nM TFPI [4]: 0.05 | FXa assay OD, 10 nM Ab, 10 nM TFPI [4]: 0.324 | FXa assay OD, 20 nM Ab, 10 nM TFPI [4]: 0.357
B4: clone 1001 (antibody, V domains shown)
VH: B1 VH with G49S, H57Y, E65D, Y102N
VL: B1 VL with V32I

FXa assay % of FXa alone, 2.5 nM Ab, 10 nM TFPI [5]: 4.7% | FXa assay % of FXa alone, 10 nM Ab, 10 nM TFPI [5]: 32.9% | FXa assay % of FXa alone, 20 nM Ab, 10 nM TFPI [5]: 78.7% | FXa assay OD, 2.5 nM Ab, 10 nM TFPI [5]: 0.034 | FXa assay OD, 10 nM Ab, 10 nM TFPI [5]: 0.236 | FXa assay OD, 20 nM Ab, 10 nM TFPI [5]: 0.566
B5: clone 1021 (antibody, V domains shown)
VH: B1 VH with G49S, H57Y, E65D, Y102H
VL: B1 VL with V32I

FXa assay % of FXa alone, 2.5 nM Ab, 10 nM TFPI [2]: 5.1% | FXa assay % of FXa alone, 5 nM Ab, 10 nM TFPI [2]: 6.9% | FXa assay % of FXa alone, 10 nM Ab, 10 nM TFPI [2]: 29% | FXa assay % of FXa alone, 20 nM Ab, 10 nM TFPI [2]: 66.1% | FXa assay OD, 5 nM Ab, 10 nM TFPI [2]: 0.06 | FXa assay OD, 10 nM Ab, 10 nM TFPI [2]: 0.252 | FXa assay OD, 20 nM Ab, 10 nM TFPI [2]: 0.576
B6: clone 1224 (antibody, V domains shown)
VH: B1 VH with N35S, G49S, H57Y, E65D, Y102N
VL: B1 VL with V32I

FXa assay % of FXa alone, 2.5 nM Ab, 10 nM TFPI [1]: 6.6% | FXa assay % of FXa alone, 5 nM Ab, 10 nM TFPI [1]: 7.7% | FXa assay % of FXa alone, 10 nM Ab, 10 nM TFPI [1]: 14.9% | FXa assay % of FXa alone, 20 nM Ab, 10 nM TFPI [1]: 61.6% | FXa assay OD, 10 nM Ab, 10 nM TFPI [1]: 0.115 | FXa assay OD, 20 nM Ab, 10 nM TFPI [1]: 0.474
B7: clone 3131 (antibody, V domains shown)
VH: B1 VH with N35S, G49S, H57Y, E65Q, Y102Q
VL: B1 VL with V32I

FXa assay % of FXa alone, 2.5 nM Ab, 10 nM TFPI [4]: 4.6% | FXa assay % of FXa alone, 5 nM Ab, 10 nM TFPI [4]: 6.2% | FXa assay % of FXa alone, 10 nM Ab, 10 nM TFPI [4]: 20.4% | FXa assay % of FXa alone, 20 nM Ab, 10 nM TFPI [4]: 42.7% | FXa assay OD, 2.5 nM Ab, 10 nM TFPI [4]: 0.0225 | FXa assay OD, 5 nM Ab, 10 nM TFPI [4]: 0.03 | FXa assay OD, 10 nM Ab, 10 nM TFPI [4]: 0.0985 | FXa assay OD, 20 nM Ab, 10 nM TFPI [4]: 0.206
B8: clone 1024 (antibody, V domains shown)
VH: B1 VH with N35S, G49S, H57Y, E65D, Y102N
VL: B1 VL with V32L

FXa assay % of FXa alone, 2.5 nM Ab, 10 nM TFPI [2]: 3.6% | FXa assay % of FXa alone, 5 nM Ab, 10 nM TFPI [2]: 4% | FXa assay % of FXa alone, 10 nM Ab, 10 nM TFPI [2]: 3.6% | FXa assay % of FXa alone, 20 nM Ab, 10 nM TFPI [2]: 3.3%
B9: clone 1216 (antibody, V domains shown)
VH: B1 VH with S31H, G49S, H57Y, Y102H
VL: B1 VL with V32I, F99L

FXa assay % of FXa alone, 2.5 nM Ab, 10 nM TFPI [4]: 8.5% | FXa assay % of FXa alone, 5 nM Ab, 10 nM TFPI [4]: 28.3% | FXa assay % of FXa alone, 10 nM Ab, 10 nM TFPI [4]: 60% | FXa assay % of FXa alone, 20 nM Ab, 10 nM TFPI [4]: 69.2% | FXa assay OD, 2.5 nM Ab, 10 nM TFPI [4]: 0.041 | FXa assay OD, 5 nM Ab, 10 nM TFPI [4]: 0.137 | FXa assay OD, 10 nM Ab, 10 nM TFPI [4]: 0.29 | FXa assay OD, 20 nM Ab, 10 nM TFPI [4]: 0.335
B10: clone 1104 (antibody, V domains shown)
VH: B1 VH with E65Q, Y102N
VL: B1 VL
